{"source": "paper PMC7972335", "key": {"[1]": {"molecular_target": "trimeric extracellular domain of the S protein of SARS-CoV-2 (SARS-CoV-2) (UniProt P0DTC2)", "assay": "cryo-EM structure; S protein incubated with PD of ACE2; three conformations"}, "[2]": {"molecular_target": "trypsin-digested S protein (extracellular domain of the SARS-CoV-2 S protein cleaved at S1/S2) (SARS-CoV-2)", "assay": "cryo-EM structure"}}, "note": "Values joined by “and” are separate entries in the source; they are usually repeats but may differ in a detail not shown here. Equal entries are not always repeated.", "data": [{"substance": "peptidase domain (PD) of ACE2 (domain or fragment)", "values": [{"measurement": "percent of particles in conformation 2 (one PD bound)", "setting": "[1]", "result": 24.4, "unit": "%"}, {"measurement": "percent of particles in conformation 3 (one PD bound)", "setting": "[1]", "result": 67.7, "unit": "%"}, {"measurement": "percent of particles in conformation 1 (one PD bound)", "setting": "[2]", "result": 9.5, "unit": "%"}, {"measurement": "percent of particles in conformation 2 (two PD bound)", "setting": "[2]", "result": 84.5, "unit": "%"}, {"measurement": "percent of particles in conformation 3 (two PD bound)", "setting": "[2]", "result": 6, "unit": "%"}, {"measurement": "stoichiometry N (PD per S(p) trimer)", "setting": "[2]", "result": "1 and 2"}]}]}
